Results reported in patent US20100172907A1 (Hoffmann-La Roche, published 2010).
Groups on a side chain read outwards from the residue. No end group written: not given here. NSMP = not defined here

T1: BSA-conjugated Aβ heptapeptide VFFAEDC (C-terminal Cys coupled to NSMP-activated BSA)
T1 construct: also called Peptide 18-23
T1 peptide: VFFAEDC

T2: BSA-conjugated Aβ heptapeptide AEFRHDC (C-terminal Cys coupled to NSMP-activated BSA)
T2 construct: also called Peptide 2-7
T2 peptide: AEFRHDC

T3: BSA-conjugated Aβ heptapeptide FFAEDVC (C-terminal Cys coupled to NSMP-activated BSA)
T3 construct: also called Peptide 19-24
T3 peptide: FFAEDVC

T4: BSA-conjugated Aβ heptapeptide LVFFAEC (reading uncertain; also: BSA conjugate)
T4 construct: also called Peptide 17-22
T4 peptide: LVFFAEC([NSMP-BSA])


Tests used:
human Aβ (1-40) peptide [1] = target: T5, human Aβ (1-40) peptide (human); test: SPR, immobilized fibers;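 further: biacore SPR using in vitro grown Aβ1-40 or Aβ1-42 fibrils immobilized on the chip with Fab analytes, KD from koff/kon fits or equilibrium isotherms based on total Fab concentration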
T5 construct: also called Aβ1-40 fibers
Procedure: (§1) Biacore2000 and Biacore3000 instruments were used for these measurements. Aβ1-40 and Aβ1-42 fibers were generated in vitro by incubation of synthetic peptides at a concentration of 200 μg/ml in 10 mM Na-acetate buffer (pH 4.0) for three days at 37° C. […] For binders with slow kinetics KD values were calculated by curve fitting of the time-dependent sensor responses, i.e. from the ratio of koff/kₒₙ. Binders with fast kinetics were analyzed by fitting the concentration-dependent sensor responses at equilibrium (adsorption-isotherms). KD values were calculated from the Biacore sensograms based on the total Fab concentration as determined by a protein assay. […] Briefly, time-dependent protein binding to Aβ1-40 fibers immobilized on the Biacore chip was measured during the association phase under mass-limited conditions at different flow rates of the analyte solution.

Aβ (1-42) peptide [2] = target: T6, Aβ (1-42) peptide (human); test: SPR, immobilized fibers;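 further: biacore SPR using in vitro grown Aβ1-40 or Aβ1-42 fibrils immobilized on the chip with Fab analytes, KD from koff/kon fits or equilibrium isotherms based on total Fab concentration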
T6 construct: also called Aβ1-42 fibers; Aβ4
Procedure: as §1

[3] = target: T1, BSA-conjugated Aβ heptapeptide VFFAEDC; test: ELISA
Procedure: (§2) 50 μl of NSMP activated BSA (6.7 mg/ml) was diluted with 50 μl of PBS, 0.1% sodium azide and 10 μl of peptide solution (1 mM in DMSO) was added. As negative control activated BSA was mock-treated without peptide addition. After 4 hrs at room temperature the reaction was stopped by addition of 10 μl of 10 mM Cystein. An aliquot of the conjugate reaction mixture was diluted 1:100 with 0.1M sodium bicarbonate buffer and immediately filled into the wells (100 μl) of ELISA plates (Nunc Immuno-Plate). After standing 16 hrs at 4° C. 100 μl blocking buffer (as above) was added to each well and incubated for another 30 minutes. The plates were washed with 2×300 μl/well TBST (as above) and filled with 100 μl antibody at 10 μg/ml or 2 μg/ml in blocking buffer. The plates were kept 16 hours at 4° C. and washed with 2×300 μl TBST. 100 μl/well HRP-conjugated anti-human Ig H+L (Pierce, dilution 1:1000 with blocking buffer) was added and incubated for 1 hour at ambient temperature. The plates were washed with 3×300 μl/well TBST. Colour development was started by addition of 100 μl tetra-methyl benzidine/hydrogen peroxide reagent.

[4] = target: T2, BSA-conjugated Aβ heptapeptide AEFRHDC; test: ELISA
Procedure: as §2

[5] = target: T3, BSA-conjugated Aβ heptapeptide FFAEDVC; test: ELISA
Procedure: as §2

[6] = target: T4, BSA-conjugated Aβ heptapeptide LVFFAEC; test: ELISA
Procedure: as §2

human Aβ (1-40) peptide [7] = target: T5, human Aβ (1-40) peptide; test: SPR, kinetic fit, immobilized fibers;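 further: surface plasmon resonance on a Biacore chip bearing in vitro formed Aβ1-40 or Aβ1-42 fibers, KD taken as koff/kon by fitting time-resolved sensor responses, based on total Fab concentration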
Procedure: as §1

Aβ (1-42) peptide [8] = target: T6, Aβ (1-42) peptide; test: SPR, kinetic fit, immobilized fibers;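 further: surface plasmon resonance on a Biacore chip bearing in vitro formed Aβ1-40 or Aβ1-42 fibers, KD taken as koff/kon by fitting time-resolved sensor responses, based on total Fab concentration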
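Wherever OD ratio 18-23/BSA is given: ELISA of antibody at 10 or 2 µg/ml binding plate-coated BSA–peptide conjugates, detected with HRP anti-human Ig and TMB colour, mock-treated BSA without peptide as negative control.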
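Wherever OD ratio 19-24/BSA is given: ELISA of antibody at 10 or 2 µg/ml binding plate-coated BSA–peptide conjugates, detected with HRP anti-human Ig and TMB colour, mock-treated BSA without peptide as negative control.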
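Wherever OD ratio 2-7/BSA is given: ELISA of antibody at 10 or 2 µg/ml binding plate-coated BSA–peptide conjugates, detected with HRP anti-human Ig and TMB colour, mock-treated BSA without peptide as negative control.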
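Wherever Peptide-ratio 18-23/2-7 is given: ELISA of antibody at 10 or 2 µg/ml binding plate-coated BSA–peptide conjugates, detected with HRP anti-human Ig and TMB colour, mock-treated BSA without peptide as negative control.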
Procedure: as §1

Binder	Kd (human Aβ (1-40) peptide [1]) [nM]	Kd (Aβ (1-42) peptide [2]) [nM]	OD ratio 18-23/BSA [3]	Peptide-ratio 18-23/2-7 [3]	OD ratio 2-7/BSA [4]	OD ratio 19-24/BSA [5]	Peptide-ratio 19-24/2-7 [5]	OD ratio 17-22/BSA [6]	Peptide-ratio 17-22/2-7 [6]	Kd (human Aβ (1-40) peptide [7]) [nM]	Kd (Aβ (1-42) peptide [8]) [nM]
MS-Roche #8.1.H1 Fab (Fab, V domains shown) VH: QVQLVESGGGLVQPGGSLRLSCAASGFTFSSYAMSWVRQAPGKGLEWVSAISRSGSNIYYADSVKGRFTISRDNSKNTLYLQMNSLRAEDTAVYYCARLLSRGYNGYYHKFDVWGQGTLVTVSS VL: not shown	13.6	9.2	25	0.88	29	25	0.86	22	0.77		
MS-Roche #8.2.L1 Fab (Fab, V domains shown) VH: not shown VL: DIVLTQSPATLSLSPGERATLSCRASQRVSGRYLAWYQQKPGQAPRLLIYGASSRATGVPARFSGSGSGTDFTLTISSLEPEDFATYYCQQLSSYPPTFGQGTKVEIKR	4.8	3.7	32	1.26	26	31	1.22	15	0.6		
MS-Roche #3.6.H2 Fab (Fab, V domains shown) VH: QVQLVESGGGLVQPGGSLRLSCAASGFTFSSYAMSWVRQAPGKGLEWVSVISERGINTYYADSVKGRFTISRDNSKNTLYLQMNSLRAEDTAVYYCARLTHYARYYRYFDVWGQGTLVTVSS VL: not shown	19.8	54	8	0.42	19	3	0.16	2	0.11		
MS-Roche #3.4.H17 Fab (Fab, V domains shown) VH: QVQLVESGGGLVQPGGSLRLSCAASGFTFSSYAMSWVRQAPGKGLEWVSAISEFGQFIYYADSVKGRFTISRDNSKNTLYLQMNSLRAEDTAVYYCARLTHYARYYRYFDVWGQGTLVTVSS VL: not shown	2	4.3	12	0.43	28	11	0.39	5	0.18		
MS-Roche #3.6.H6 Fab (Fab, V domains shown) VH: QVQLVESGGGLVQPGGSLRLSCAASGFTFSSYAMSWVRQAPGKGLEWVSAISEHGTNIYYADSVKGRFTISRDNSKNTLYLQMNSLRAEDTAVYYCARLTHYARYYRYFDVWGQGTLVTVSS VL: not shown	36	11.8	4	0.16	25	7	0.28	1	0.04		
MS-Roche #7.12 Fab (Fab, V domains shown) VH: QVQLVESGGGLVQPGGSLRLSCAASGFTFSSYGMSWVRQAPGKGLEWVSNISGSGSSTYYADSVKGRFTISRDNSKNTLYLQMNSLRAEDTAVYYCARGKGNTHKPYGYVRYFDVWGQGTLVTVSS VL: DIVLTQSPATLSLSPGERATLSCRASQYVSSPYLAWYQQKPGQAPRLLISGSSNRATGVPARFSGSGSGTDFTLTISSLEPEDFAVYYCLQLYNIPNTFGQGTKVEIKR	28	60	8	0.21	38	7	0.18	6	0.16		
MS-Roche #3.4H7×3.4L9 Fab (Fab, V domains shown, cross-cloned Fab) VH: QLVESGGGLVQPGGSLRLSCAASGFTFSSYAMSWVRQAPGKGLEWVSVISETGKNIYYADSVKGRFTISRDNSKNTLYLQMNSLRAEDTAVYYCARLTHYARYYRYFDVWGQGTLVTVSS VL: DIVLTQSPATLSLSPGERATLSCRASRRIHVYYLAWYQQKPGQAPRLLIYGASSRATGVPARFSGSGSGTDFTLTISSLEPEDFATYYCQQTYDYPPTFGQGTKVEIKR										2.66	3.51
MS-Roche #7.11H1×7.2L1 Fab (Fab, V domains shown, cross-cloned Fab; VH entry starts at QLVESGG) VH: QLVESGGGLVQPGGSLRLSCAASGFTFSSYAMSWVRQAPGKGLEWVSGINAAGFRTYYADSVKGRFTISRDNSKNTLYLQMNSLRAEDTAVYYCARGKGNTHKPYGYVRYFDVWGQGTLVTVSS VL: DIVLTQSPATLSLSPGERATLSCRASQYVDRTYLAWYQQKPGQAPRLLIYGASSRATGVPARFSGSGSGTDFTLTISSLEPEDFATYYCQQIYSFPHTFGQGTKVEIKR										1.75	1.39
MS-Roche #3.4H3×3.4L9 Fab (Fab, V domains shown, cross-cloned Fab) VH: QLVESGGGLVQPGGSLRLSCAASGFTFSSYAMSWVRQAPGKGLEWVSVISQTGRKIYYADSVKGRFTISRDNSKNTLYLQMNSLRAEDTAVYYCARLTHYARYYRYFDVWGQGTLVTVSS VL: DIVLTQSPATLSLSPGERATLSCRASRRIHVYYLAWYQQKPGQAPRLLIYGASSRATGVPARFSGSGSGTDFTLTISSLEPEDFATYYCQQTYDYPPTFGQGTKVEIKR										1.05	0.93
MS-Roche #7.2H2×7.2L1 Fab (Fab, V domains shown, cross-cloned Fab) VH: QLVESGGGLVQPGGSLRLSCAASGFTFSSYAMSWVRQAPGKGLEWVSAINGTGMKKYYADSVKGRFTISRDNSKNTLYLQMNSLRAEDTAVYYCARGKGNTHKPYGYVRYFDVWGQGTLVTVSS VL: DIVLTQSPATLSLSPGERATLSCRASQYVDRTYLAWYQQKPGQAPRLLIYGASSRATGVPARFSGSGSGTDFTLTISSLEPEDFATYYCQQIYSFPHTFGQGTKVEIKR										1.29	1.43
MS-Roche #3.6H5×3.6L1 Fab (Fab, V domains shown, cross-cloned Fab) VH: QLVESGGGLVQPGGSLRLSCAASGFTFSSYAMSWVRQAPGKGLEWVSAISESGKTKYYADSVKGRFTISRDNSKNTLYLQMNSLRAEDTAVYYCARLTHYARYYRYFDVWGQGTLVTVSS VL: DIVLTQSPATLSLSPGERATLSCRASQFIQRFYLAWYQQKPGQAPRLLIYGASSRATGVPARFSGSGSGTDFTLTISSLEPEDFAVYYCQQTYNYPPTFGQGTKVEIKR										1.25	1.04
MS-Roche #3.3H1×3.4L9 Fab (Fab, V domains shown, cross-cloned Fab) VH: QLVESGGGLVQPGGSLRLSCAASGFTFSSYAMSWVRQAPGKGLEWVSVISEKSRFIYYADSVKGRFTISRDNSKNTLYLQMNSLRAEDTAVYYCARLTHYARYYRYFDVWGQGTLVTVSS VL: DIVLTQSPATLSLSPGERATLSCRASRRIHVYYLAWYQQKPGQAPRLLIYGASSRATGVPARFSGSGSGTDFTLTISSLEPEDFATYYCQQTYDYPPTFGQGTKVEIKR										2.16	2.97
MS-Roche #3.4H1×3.4L9 Fab (Fab, V domains shown, cross-cloned Fab) VH: QLVESGGGLVQPGGSLRLSCAASGFTFSSYAMSWVRQAPGKGLEWVSAISETSIRKYYADSVKGRFTISRDNSKNTLYLQMNSLRAEDTAVYYCARLTHYARYYRYFDVWGQGTLVTVSS VL: DIVLTQSPATLSLSPGERATLSCRASRRIHVYYLAWYQQKPGQAPRLLIYGASSRATGVPARFSGSGSGTDFTLTISSLEPEDFATYYCQQTYDYPPTFGQGTKVEIKR										0.25	0.5
MS-Roche #7.4H2×7.2L1 Fab (Fab, V domains shown, cross-cloned Fab; VH entry starts at QLVESGG) VH: QLVESGGGLVQPGGSLRLSCAASGFTFSSYAMSWVRQAPGKGLEWVSAINYNGARIYYADSVKGRFTISRDNSKNTLYLQMNSLRAEDTAVYYCARGKGNTHKPYGYVRYFDVWGQGTLVTVSS VL: DIVLTQSPATLSLSPGERATLSCRASQYVDRTYLAWYQQKPGQAPRLLIYGASSRATGVPARFSGSGSGTDFTLTISSLEPEDFATYYCQQIYSFPHTFGQGTKVEIKR										1.4	1.4
MS-Roche #3.4H7×3.4L7 Fab (Fab, V domains shown, cross-cloned Fab) VH: QLVESGGGLVQPGGSLRLSCAASGFTFSSYAMSWVRQAPGKGLEWVSVISETGKNIYYADSVKGRFTISRDNSKNTLYLQMNSLRAEDTAVYYCARLTHYARYYRYFDVWGQGTLVTVSS VL: DIVLTQSPATLSLSPGERATLSCRASQRLGRLYLAWYQQKPGQAPRLLIYGASSRATGVPARFSGSGSGTDFTLTISSLEPEDFATYYCQQTYDYPPTFGQGTKVEIKR										1.19	1.23
MS-Roche #3.4H3×3.4L7 Fab (Fab, V domains shown, cross-cloned Fab) VH: QLVESGGGLVQPGGSLRLSCAASGFTFSSYAMSWVRQAPGKGLEWVSVISQTGRKIYYADSVKGRFTISRDNSKNTLYLQMNSLRAEDTAVYYCARLTHYARYYRYFDVWGQGTLVTVSS VL: DIVLTQSPATLSLSPGERATLSCRASQRLGRLYLAWYQQKPGQAPRLLIYGASSRATGVPARFSGSGSGTDFTLTISSLEPEDFATYYCQQTYDYPPTFGQGTKVEIKR										0.92	0.92
MS-Roche #3.6H5×3.6L2 Fab (Fab, V domains shown, cross-cloned Fab; VH entry starts at QLVESGG) VH: QLVESGGGLVQPGGSLRLSCAASGFTFSSYAMSWVRQAPGKGLEWVSAISESGKTKYYADSVKGRFTISRDNSKNTLYLQMNSLRAEDTAVYYCARLTHYARYYRYFDVWGQGTLVTVSS VL: DIVLTQSPATLSLSPGERATLSCRASQFLSRYYLAWYQQKPGQAPRLLIYGASSRATGVPARFSGSGSGTDFTLTISSLEPEDFAVYYCQQTYNYPPTFGQGTKVEIKR										1.26	0.84
MS-Roche #7.11H1×7.11L1 Fab (Fab, V domains shown, cross-cloned Fab; VH entry starts at QLVESGG) VH: QLVESGGGLVQPGGSLRLSCAASGFTFSSYAMSWVRQAPGKGLEWVSGINAAGFRTYYADSVKGRFTISRDNSKNTLYLQMNSLRAEDTAVYYCARGKGNTHKPYGYVRYFDVWGQGTLVTVSS VL: DIVLTQSPATLSLSPGERATLSCRASQRILRIYLAWYQQKPGQAPRLLIYGASSRATGVPARFSGSGSGTDFTLTISSLEPEDFATYYCQQVYSPPHTFGQGTKVEIKR										0.41	0.47
